Reference: publication PMC12737678

Columns and labels:
[1] = target: SARS-CoV-2 papain-like protease (PLpro) (SARS-CoV-2)
[2] = target: oxytocin (UniProt P01178); assay: small-molecule microarray

Substance | IC50 of inhibition of PLpro enzymatic activity (dose-response curve, Figure 5C) [1] [µM] | SNR (signal-to-noise ratio on the microarray) [2]
oxytocin (from UniProt P01178 20-28) (peptide) | 4.92 | 
SARS-CoV-2 papain-like protease (PLpro) (enzyme) |  | 6.52
SARS-CoV-2 main protease (Mpro) (enzyme) |  | 5.53
